Source: PMC7423155, “RCC1L (WBSCR16) isoforms coordinate mitochondrial ribosome assembly through their interaction with GTPases” (PLoS Genetics, 2020)

Target: T1, STREP2-FLAG-tagged RCC1L^V1 (human, UniProt Q96I51 38-464)
T1 construct: RCC1L (WBSCR16), human, isoform RCC1L^V1, the principal isoform, 464 amino acids as precursor; isoform cDNA expressed in cells and recovered from purified mitochondria; pcDNA5/FRT/TO; carboxy-terminal STREP2 followed by FLAG; also called RCC1L^V1-FLAG; WBSCR16 isoform V1; source: inducible transgenic HEK cell line (doxycycline), in lysate of purified mitochondria; not shown: STREP2, C-terminal, …
T1 sequence (Q96I51 38-464): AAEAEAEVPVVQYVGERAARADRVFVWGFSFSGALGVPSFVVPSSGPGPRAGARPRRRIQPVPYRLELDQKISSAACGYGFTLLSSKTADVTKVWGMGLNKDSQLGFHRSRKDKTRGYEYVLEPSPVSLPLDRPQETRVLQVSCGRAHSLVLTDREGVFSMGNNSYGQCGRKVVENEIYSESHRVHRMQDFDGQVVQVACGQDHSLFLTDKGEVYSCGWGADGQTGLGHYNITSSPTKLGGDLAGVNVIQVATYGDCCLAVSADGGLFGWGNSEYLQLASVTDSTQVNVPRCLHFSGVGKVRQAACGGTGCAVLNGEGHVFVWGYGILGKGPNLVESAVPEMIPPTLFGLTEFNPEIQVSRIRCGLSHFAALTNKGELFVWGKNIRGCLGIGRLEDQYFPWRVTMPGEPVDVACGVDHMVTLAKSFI
Test: co-IP; STREP2-FLAG-tagged RCC1L isoform as bait, captured on Strep-Tactin Sepharose overnight from trypsin-treated, sucrose gradient-purified HEK mitochondria lysed with 0.8% DDM; 10 washes; elution with 10 mM desthiobiotin; endogenous proteins in the elution found by immunoblot
Settings: partners not purified

B1: GTPBP10 (enzyme, human (endogenous in HEK293T), UniProt A4D1E9 1-387, looked up)
chain: MVHCSCVLFRKYGNFIDKLRLFTRGGSGGMGYPRLGGEGGKGGDVWVVAQNRMTLKQLKDRYPRKRFVAGVGANSKISALKGSKGKDCEIPVPVGISVTDENGKIIGELNKENDRILVAQGGLGGKLLTNFLPLKGQKRIIHLDLKLIADVGLVGFPNAGKSSLLSCVSHAKPAIADYAFTTLKPELGKIMYSDFKQISVADLPGLIEGAHMNKGMGHKFLKHIERTRQLLFVVDISGFQLSSHTQYRTAFETIILLTKELELYKEELQTKPALLAVNKMDLPDAQDKFHELMSQLQNPKDFLHLFEKNMIPERTVEFQHIIPISAVTGEGIEELKNCIRKSLDEQANQENDALHKKQLLNLWISDTMSSTEPPSKHAVTTSKMDII
notes: GTPBP10, mitochondrial GTPase of mtLSU assembly, human; endogenous mitochondrial protein; source: endogenous, lysate of purified HEK mitochondria
  fold enrichment in the pull-down over MTG1: 5 fold
  fold enrichment in the pull-down over MTG2: 4 fold
